“Also recorded” adds a separate entry of the source.
How the values were obtained:
pMad1CTD (Mad1CTD pT716) = test: SEC-MALS, Cdc20N with pMad1CTD; assay type: binding, human
Procedure: (§1) Size-exclusion chromatography coupled with multi-angle static light scattering (SEC-MALS), was performed using an Agilent 1200 series LC system with an online Dawn Helios ii system (Wyatt) equipped with a QELS + module (Wyatt) and an Optilab rEX differential refractive index detector (Wyatt). About 100 μl purified protein at ~3.0 mg/ml was auto-injected onto Superdex 75 or a Superdex 200 Increase 10/300 GL column (GE Healthcare) and run at 0.5 ml/min. The molecular masses were analysed with ASTRA 7.3.0.11 (Wyatt). Data were plotted using Prism 8.4.3 (GraphPad Software, Inc). Purified Cdc20^N and Cdc20^N mutants were incubated with Mad1^CTD wild-type or mutants at a 1:1.2 ratio of Mad1^CTD dimer to Cdc20^N.

[1] = molecular target: T1, Mad1CTD (unphosphorylated) (Homo sapiens, UniProt Q9Y6D9); test: 1H,15N HSQC / CON NMR titration with unphosphorylated Mad1CTD; assay type: binding; settings: residues 616-660 of Mad1CTD in HSQC; N-terminal half of Cdc20N in CON
T1 construct: the C-terminal domain of Mad1 (residue 597–718); made in house
T1 sequence (Q9Y6D9 597-718): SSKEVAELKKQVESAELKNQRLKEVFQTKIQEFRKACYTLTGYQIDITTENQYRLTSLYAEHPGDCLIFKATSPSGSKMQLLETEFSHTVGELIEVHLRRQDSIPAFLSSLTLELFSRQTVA
Procedure: (§2) Uniformly-labelled proteins were expressed in M9 minimal media (6 g/L Na2HPO4, 3 g/L KH2PO4, 0.5 g/L NaCl) supplemented with 1.7 g/L yeast nitrogen base without NH4Cl and amino acids (Sigma Y1251). 1 g/L ^15NH4Cl and 4 g/L unlabelled glucose were supplemented for ^15N labelling. For ^13C/ ^15N double-labelled samples, unlabelled glucose was replaced with 3 g/L ^13C-glucose. Prior to all NMR experiments, proteins were dialysed into 20 mM HEPES, pH 7.0, 100 mM NaCl and 1 mM TCEP.
The following protein concentrations were used in NMR studies: ^1H,^15N HSQC of Mad1^CTD were collected with a 100 µM sample, whereas a 50 µM sample was used for titrations with Cdc20^N and Cdc20^α1. […] To follow the O-to-C conversion of Mad2, the samples were prepared on ice and monitored using BEST ^1H,^15N-TROSY HSQC. […]
(§3) For binding studies, the relative peak intensities were normalised to the C-terminal residue Ala718 of Mad1^CTD or Gly73 of Cdc20^N and expressed as PIbound/PIfree, with PIfree and PIbound being the peak heights of the free and bound forms, respectively. Weighted chemical shift perturbations were calculated using the equation[63]: Δδ = [(ΔδHNWHN)^2 + (ΔδNWN)^2)^2]^1/2 where ΔδHN and ΔδN are the chemical shift perturbations in ^1H and ^15N dimensions respectively. The weight factors were determined from the average variances of chemical shifts in the BMRB database, where WHN = 1 and WN = 0.16.

pMad1CTD = test: 1H,15N HSQC / CON NMR titration with pMad1CTD; assay type: binding, human; settings: pMad1CTD
Procedure: as §2
The following protein concentrations were used in NMR studies: ^1H,^15N HSQC of Mad1^CTD were collected with a 100 µM sample, whereas a 50 µM sample was used for titrations with Cdc20^N and Cdc20^α1. Cdc20^Box1 peptide was added at mM concentrations to minimise dilution during titration. […] Mad1^CTD was concentrated to 3 mM for titrations into Cdc20^N. ^1H,^15N HSQC of Mad2 were collected at 100 µM. All Mad2 NMR samples contain an R133A mutation to prevent Mad2 dimerisation. The C-Mad2 sample additionally contains an L13A mutation which favours the C-Mad2 state. Cdc20^MIM-bound C-Mad2 sample was prepared by adding a 1:2 excess of Cdc20^MIM peptide to an O-Mad2 sample with R133A mutation. To follow the O-to-C conversion of Mad2, the samples were prepared on ice and monitored using BEST ^1H,^15N-TROSY HSQC. The spectra were acquired with 16 scans and a recycle delay of 400 msec, giving an experimental time of 12 min per spectrum.
Mad1^CTD and Mad2 experiments were performed using an in-house 800 MHz Avance III spectrometer and Cdc20^N experiments were performed using an in-house 700 MHz Avance II + spectrometer, both equipped with triple resonance TCI CryoProbes. To retrieve signals that suffer from exchange broadening, we also utilised the Bruker 950 MHz Avance III spectrometer located at MRC Biomedical NMR Centre (Francis Crick Institute). Mad1^CTD and Mad2 spectra were collected at 298 K. Cdc20^N spectra were collected at 278 K to minimise exchange broadening for the largely disordered Cdc20^N.
as §3

pMad1CTD homodimer = test: AUC-SE (sedimentation equilibrium) of pMad1CTD and Cdc20N; assay type: binding, human; settings: for calculated mass of major species (Cdc20N:pMad1CTD): 20 °C, expected 35.7 kDa
Procedure: Sedimentation equilibrium experiments were carried out in a buffer of 20 mM HEPES pH 7.5, 100 mM NaCl and 1 mM TCEP. Samples were loaded into 12 mm six-sector cells, placed in an An-50Ti rotor and centrifugated at 10,200, 12,200 and 21,000 rpm at 20 °C until equilibrium had been reached using an Optima XL-I analytical ultracentrifuge (Beckman). The data were analysed in SEDPHAT 15.2b[68]. The partial-specific volumes (v-bar) were calculated using Sednterp[69]. The density and viscosity of the buffer were determined with a DMA 4500 M density metre (Anton Parr) and an AMVn viscometer (Anton Paar). Data were plotted with the program GUSSI[70].

[2] = system: AF488-Bub1CD1:Mad1CTD complex (unphosphorylated); test: Fluorescence anisotropy: Cdc20N titrated into preformed AF488-Bub1CD1:Mad1CTD complex; assay type: binding, human
Procedure: (§4) All reactions were completed in a buffer of 25 mM HEPES pH 7.75, 1 mM TCEP, 100 mM NaCl, 0.05% (v/v) Tween-20. […] Measurements were performed with a PheraStar plate reader FSX plate reader (BMG Labtech) using an optic module for λex = 485 nm, λem = 520 nm. Reactions were carried out in a total volume of 40 μl at 25 °C in a black, flat-bottom, non-binding surface 384-well plate (Corning). All experiments were performed as technical triplicates and data were analysed in PRISM 9.3.1 (GraphPad Software).

[3] = system: AF488-Bub1CD1:pMad1CTD complex; test: Fluorescence anisotropy: Cdc20N titrated into preformed AF488-Bub1CD1:pMad1CTD complex; assay type: binding, human; settings: preformed AF488-Bub1CD1:pMad1CTD
[4] = molecular target: T1, Mad1CTD (unphosphorylated); test: SEC-MALS, Cdc20N with unphosphorylated Mad1CTD; assay type: binding; settings: 1:1.2 ratio Mad1CTD dimer to Cdc20N
Procedure: as §1

[5] = Aggregation or non-specific binding at high concentration in the fluorescence anisotropy assay; assay type: physicochemical; settings: further titration of Cdc20N to saturation; total fluorescence intensity
Procedure: as §4

[6] = system: Mad1CTD R617E/K619D mutant; test: SEC-MALS, Cdc20N with Mad1CTD R617E/K619D; assay type: binding, human; settings: 1:1.2 ratio Mad1CTD dimer to Cdc20N
Procedure: as §1

B1: Cdc20^N: N-terminal truncation of human Cdc20 (residues 1–73) (protein)
chain: MAQFAFESDLHSLLQLDAPIPNAPPARWQRKAKEAAGPAPSPMRAANRSHSAGRTPGRTPGKSSSKVQTTPSK
modifications: left off: His6, N-terminal, cleaved | MBP, N-terminal, cleaved
binding by SEC-MALS (pMad1CTD (Mad1CTD pT716); 1:1.2 ratio Mad1CTD dimer to Cdc20N): formed a stable complex | observed mass of pMad1CTD:Cdc20N complex (pMad1CTD (Mad1CTD pT716); SEC-MALS, expected 36 kDa for pMad1CTD dimer with one Cdc20N): 38 kDa | NMR signal attenuation / line broadening [1]: Significant signal attenuation; also recorded: substantial signal attenuation | NMR signal attenuation / line broadening (pMad1CTD): more pronounced and extensive; also recorded: More significant signal attenuation | calculated mass of major species (Cdc20N:pMad1CTD) (pMad1CTD homodimer; 20 µM Mad1CTD + 40 µM Cdc20N): 32.6 kDa | calculated mass of major species (Cdc20N:pMad1CTD) (pMad1CTD homodimer; 20 µM Mad1CTD + 80 µM Cdc20N): 35.9 kDa | stoichiometry on pMad1CTD homodimer (pMad1CTD homodimer; even with four-fold molar excess of Cdc20N): only a single copy of Cdc20^N bound | change in fluorescence anisotropy on Cdc20N titration (competition test) [2]: increased the fluorescence anisotropy | change in fluorescence anisotropy on Cdc20N titration (competition test) [3]: increased the fluorescence anisotropy | binding by SEC-MALS [4]: did not bind; also recorded: no binding | aggregation or non-specific binding to the plate [5]: large increases in the total fluorescence intensity indicating aggregation or non-specific binding to the plate | binding by SEC-MALS [6]: did not bind
